Measurements reported in patent US20170210813A1 (Regeneron, published 2017).

T1: Macaca fascicularis PDGFRb.mmh (Macaca fascicularis)
T1 construct: Soluble monomeric construct; also called mfPDGFRb.mmh
T1 chain: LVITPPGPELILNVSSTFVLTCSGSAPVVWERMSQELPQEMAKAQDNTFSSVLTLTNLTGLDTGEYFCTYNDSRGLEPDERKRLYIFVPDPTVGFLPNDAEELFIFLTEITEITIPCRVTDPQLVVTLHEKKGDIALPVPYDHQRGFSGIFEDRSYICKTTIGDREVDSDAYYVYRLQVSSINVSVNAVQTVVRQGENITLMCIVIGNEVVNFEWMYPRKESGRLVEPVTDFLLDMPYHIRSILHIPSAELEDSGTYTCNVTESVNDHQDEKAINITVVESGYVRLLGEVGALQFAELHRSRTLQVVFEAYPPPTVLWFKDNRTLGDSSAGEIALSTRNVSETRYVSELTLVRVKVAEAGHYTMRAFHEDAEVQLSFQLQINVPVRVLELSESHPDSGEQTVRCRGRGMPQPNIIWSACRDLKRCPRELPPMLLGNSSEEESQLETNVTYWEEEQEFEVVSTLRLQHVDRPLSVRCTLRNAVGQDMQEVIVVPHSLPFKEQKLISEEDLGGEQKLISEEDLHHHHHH


Legend:
[1] = molecular target: T2, full length human PDGFR-beta on HEK293 cells (human, UniProt P09619 33-1106); experiment: cell-based or functional assay
[2] = molecular target: T2, full length human PDGFR-beta on HEK293 …; experiment: cell-based or functional assay; remark: listed apart in the source
hPDGFRb.mmh [3] = molecular target: T3, hPDGFRb.mmh (human, UniProt P09619 33-531); experiment: SPR, mAb captured, 25 C
T3 construct: Soluble monomeric construct; also called soluble human PDGFR-beta.mmh
Description: (§1) Antibodies, expressed as either mouse Fc (prefix H1M; H2M) or human Fc (prefix H4H), were captured on their respective anti-Fc sensor surfaces (Mab capture format). […] Kinetic association (kₐ) and dissociation (kd) rate constants were determined by processing and fitting the data to a 1:1 binding model using Scrubber 2.0 curve fitting software.

[4] = molecular target: T1, Macaca fascicularis PDGFRb.mmh; experiment: SPR, mAb captured, 25 C
Description: as §1

human PDGFRb.hFc [5] = molecular target: T4, human PDGFRb.hFc (human); experiment: SPR, mAb captured, 25 C
T4 construct: Soluble dimeric construct with human Fc; also called hPDGFRb.hFc
Description: as §1

hPDGFRb.mmh [6] = molecular target: T3, hPDGFRb.mmh; experiment: SPR, mAb captured, 37 C
Description: as §1

[7] = molecular target: T1, Macaca fascicularis PDGFRb.mmh; experiment: SPR, mAb captured, 37 C
Description: as §1

human PDGFRb.hFc [8] = molecular target: T4, human PDGFRb.hFc; experiment: SPR, mAb captured, 37 C
Description: as §1

hPDGFRb.mmh [9] = molecular target: T3, hPDGFRb.mmh; experiment: blocking ELISA, biot-hPDGFRb.mmh to coated PDGF-BB
hPDGFRb.mmh [10] = molecular target: T3, hPDGFRb.mmh; experiment: Octet BLI cross-competition, 25 C; hPDGFRb.mmh on anti-Penta-His tips pre-saturated with mAb-1 H4H3094P (row 5)
Description: (§2) A cross-competition assay was conducted to assess the ability of select antibodies to compete with one another for binding to human PDGFR-beta. […] Each PDGFR-beta.mmh-coated sensor tip was saturated for 5 min with a first anti-PDGFR-beta antibody (Mab #1; 50 μg/mL). Next, each sensor tip was saturated with a solution of a second anti-PDGFR-beta antibody (Mab #2). The real time response of Mab #2 binding to PDGR-beta.mmh pre-complexed with Mab #1 was then monitored. All assays were performed at 25° C. with a flow rate of 1000 rpm on an Octet RED384 biosensor in Octet HBST buffer according to manufacturer's instructions (ForteBio Corp., Menlo Park, Calif.). Results are illustrated in FIG. 2.

hPDGFRb.mmh [11] = molecular target: T3, hPDGFRb.mmh; experiment: Octet BLI cross-competition, 25 C; hPDGFRb.mmh on anti-Penta-His tips pre-saturated with mAb-1 H4H3099S (row 6)
Description: as §2

hPDGFRb.mmh [12] = molecular target: T3, hPDGFRb.mmh; experiment: Octet BLI cross-competition, 25 C; hPDGFRb.mmh on anti-Penta-His tips pre-saturated with mAb-1 H4H3107S (row 7)
Description: as §2

hPDGFRb.mmh [13] = molecular target: T3, hPDGFRb.mmh; experiment: Octet BLI cross-competition, 25 C; hPDGFRb.mmh on anti-Penta-His tips pre-saturated with mAb-1 H4H3305N (row 8)
Description: as §2

hPDGFRb.mmh [14] = molecular target: T3, hPDGFRb.mmh; experiment: Octet BLI cross-competition, 25 C; hPDGFRb.mmh on anti-Penta-His tips pre-saturated with mAb-1 H4H3310N (row 9)
Description: as §2

hPDGFRb.mmh [15] = molecular target: T3, hPDGFRb.mmh; experiment: Octet BLI cross-competition, 25 C; hPDGFRb.mmh on anti-Penta-His tips pre-saturated with mAb-1 H4H3365N (row 2)
Description: as §2

hPDGFRb.mmh [16] = molecular target: T3, hPDGFRb.mmh; experiment: Octet BLI cross-competition, 25 C; hPDGFRb.mmh on anti-Penta-His tips pre-saturated with mAb-1 H4H3374N (row 3)
Description: as §2

hPDGFRb.mmh [17] = molecular target: T3, hPDGFRb.mmh; experiment: Octet BLI cross-competition, 25 C; hPDGFRb.mmh on anti-Penta-His tips pre-saturated with mAb-1 Control I (row 1)
Description: as §2

hPDGFRb.mmh [18] = molecular target: T3, hPDGFRb.mmh; experiment: Octet BLI cross-competition, 25 C; hPDGFRb.mmh on anti-Penta-His tips pre-saturated with mAb-1 H4H3103S (row 4)
Description: as §2

IC50, blocking PDGF-BB (250 pM) activation, SRE-luciferase [1] [M] | IC50, blocking PDGF-DD (400 pM) activation, SRE-luciferase [1] [M] | Percent Internalization (Relative to Control I) [2] [%] | Kd (hPDGFRb.mmh [3]) [nM] | koff (hPDGFRb.mmh [3]) [s⁻¹] | kon (hPDGFRb.mmh [3]) [M⁻¹ s⁻¹] | t1/2 (hPDGFRb.mmh [3]) [min] | Kd [4] [nM] | koff [4] [s⁻¹] | kon [4] [M⁻¹ s⁻¹] | t1/2 [4] [min] | Kd (human PDGFRb.hFc [5]) [nM] | koff (human PDGFRb.hFc [5]) [s⁻¹] | kon (human PDGFRb.hFc [5]) [M⁻¹ s⁻¹] | t1/2 (human PDGFRb.hFc [5]) [min] | Kd (hPDGFRb.mmh [6]) [nM] | koff (hPDGFRb.mmh [6]) [s⁻¹] | kon (hPDGFRb.mmh [6]) [M⁻¹ s⁻¹] | t1/2 (hPDGFRb.mmh [6]) [min] | Kd [7] [nM] | Binder | also measured
2e-10 | 2.6e-10 | 87 | 3.13 | 0.00105 | 335000 | 11 | 3.24 | 0.00116 | 359000 | 10 | 0.264 | 0.000164 | 621000 | 70 | 10.1 | 0.00497 | 492000 | 2 | 10.2 | H4H3103S (antibody, human IgG4, V domains shown, human IgG4 Fc (H4H prefix)) VH: EVQLLQSGGGLVQPGGSLRLSCAASGFTFSHYWMSWVRQGPGKGLEWVATIKKDGSESYYVDSVRGRFTISRDNAKNSLYLQMNSLRTEDTAVYYCARDIVTPNVGYYFGMDVWGQGTTVTVSS VL: DIQMTQSPSTLSASVGDRVTITCRASQSISSWLSWYQQKPGKAPKLLIYMASTLESGVPSRFSGSGSGTDFTLTITSLQPDDFATYYCQQSNSYSRTFGHGTKLEIK | koff [7]: 0.00556 s⁻¹; kon [7]: 544000 M⁻¹ s⁻¹; t1/2 [7]: 2 min; Kd (human PDGFRb.hFc [8]): 0.405 nM; koff (human PDGFRb.hFc [8]): 0.000306 s⁻¹; kon (human PDGFRb.hFc [8]): 757000 M⁻¹ s⁻¹; t1/2 (human PDGFRb.hFc [8]): 38 min; % Maximum Blocking (hPDGFRb.mmh [9]): 90%; IC50 (hPDGFRb.mmh [9]): 0.24 nM; Response of mAb-2 Binding to hPDGFRβ.mmh Pre-Complexed with mAb-1 (nm) (hPDGFRb.mmh [10]): 0 nm; Response of mAb-2 Binding to hPDGFRβ.mmh Pre-Complexed with mAb-1 (nm) (hPDGFRb.mmh [11]): 0.26 nm; Response of mAb-2 Binding to hPDGFRβ.mmh Pre-Complexed with mAb-1 (nm) (hPDGFRb.mmh [12]): 0.24 nm; Response of mAb-2 Binding to hPDGFRβ.mmh Pre-Complexed with mAb-1 (nm) (hPDGFRb.mmh [13]): 0.26 nm; Response of mAb-2 Binding to hPDGFRβ.mmh Pre-Complexed with mAb-1 (nm) (hPDGFRb.mmh [14]): 0.25 nm; Response of mAb-2 Binding to hPDGFRβ.mmh Pre-Complexed with mAb-1 (nm) (hPDGFRb.mmh [15]): 0.02 nm; Response of mAb-2 Binding to hPDGFRβ.mmh Pre-Complexed with mAb-1 (nm) (hPDGFRb.mmh [16]): 0.01 nm; Response of mAb-2 Binding to hPDGFRβ.mmh Pre-Complexed with mAb-1 (nm) (hPDGFRb.mmh [17]): -0.01 nm
6.8e-10 | 6.6e-10 | 66 | 3.41 | 8.92e-05 | 26100 | 130 | 3.75 | 0.000108 | 28800 | 107 | 0.652 | 2.9e-05 | 44500 | 398 | 6.65 | 0.000339 | 50900 | 34 | 7.62 | H4H3310N (antibody, human IgG4, V domains shown, human IgG4 Fc (H4H prefix)) VH: EVQLLESGGDLVQPGGSLRLSCAASGITFSSFAMSWVRQAPGKGLEWVSTVSVSAGITYYADSVKGRFTISRDNSKNTLYLQMNSLRAEDTAIYYCAKSSCTTNSCPAYFDYWGLGTLVTVSS VL: not shown | koff [7]: 0.000392 s⁻¹; kon [7]: 51400 M⁻¹ s⁻¹; t1/2 [7]: 29 min; Kd (human PDGFRb.hFc [8]): 0.632 nM; koff (human PDGFRb.hFc [8]): 4.5e-05 s⁻¹; kon (human PDGFRb.hFc [8]): 71300 M⁻¹ s⁻¹; t1/2 (human PDGFRb.hFc [8]): 256 min; % Maximum Blocking (hPDGFRb.mmh [9]): 86%; IC50 (hPDGFRb.mmh [9]): 0.45 nM; Response of mAb-2 Binding to hPDGFRβ.mmh Pre-Complexed with mAb-1 (nm) (hPDGFRb.mmh [10]): 0.27 nm; Response of mAb-2 Binding to hPDGFRβ.mmh Pre-Complexed with mAb-1 (nm) (hPDGFRb.mmh [11]): -0.01 nm; Response of mAb-2 Binding to hPDGFRβ.mmh Pre-Complexed with mAb-1 (nm) (hPDGFRb.mmh [18]): 0.24 nm; Response of mAb-2 Binding to hPDGFRβ.mmh Pre-Complexed with mAb-1 (nm) (hPDGFRb.mmh [12]): -0.01 nm; Response of mAb-2 Binding to hPDGFRβ.mmh Pre-Complexed with mAb-1 (nm) (hPDGFRb.mmh [13]): 0.01 nm; Response of mAb-2 Binding to hPDGFRβ.mmh Pre-Complexed with mAb-1 (nm) (hPDGFRb.mmh [15]): 0.24 nm; Response of mAb-2 Binding to hPDGFRβ.mmh Pre-Complexed with mAb-1 (nm) (hPDGFRb.mmh [16]): 0.23 nm; Response of mAb-2 Binding to hPDGFRβ.mmh Pre-Complexed with mAb-1 (nm) (hPDGFRb.mmh [17]): 0.2 nm
